Results reported in patent US20210324111A1 (UCB, published 2021).
Substitutions are numbered along the chain they refer to.

B1: 645gL4gH5 Fab-A26 BYbe wt (bispecific antibody, part only; not given: A26 dsscFv, linker, CH1, CL, V domains shown, not shown: another chain or arm of the molecule; a dimerising Fc or GST; small tags and cut ends)
VH: EVQLLESGGGLVQPGGSLRLSCAVSGIDLSNYAINWVRQAPGKQLEWIGIIWASGTTFYATWAKGRFTISRDNSKNTVYLQMNSLRAEDTAVYYCARTVPGYSTAPYFDLWGQGTLVTVSS
VL: DIQMTQSPSSVSASVGDRVTITCQSSPSVWSNFLSWYQQKPGKAPKLLIYEASKLTSGVPSRFSGSGSGTDFTLTISSLQPEDFATYYCGGGYSSISDTTFGGGTKVEIK
B2: 645CDR-497FW Fab-A26 ds HL BYbe (bispecific antibody, part only; not given: A26 dsscFv, linker, CH1, CL, V domains shown, not shown: another chain or arm of the molecule; a dimerising Fc or GST; small tags and cut ends)
VH: EVQLVESGGGLVKPGGSLRLSCAASGIDLSNYAINWVRQAPGKGLEWVGIIWASGTTFYATWAKGRFTISRDDSKNTLYLQMNSLKTEDTAVYYCTTTVPGYSTAPYFDLWGQGTLVTVSS
VL: B1 VL with D1A, M4L, V11L, G103Q
B3: 645CDR-2109FW Fab-A26 ds HL BYbe (bispecific antibody, part only; not given: A26 dsscFv, linker, CH1, CL, V domains shown, not shown: another chain or arm of the molecule; a dimerising Fc or GST; small tags and cut ends)
VH: B2 VH with V48I, R71V, D73K, S74A, T77S, L78A, K86R, T87A, T97R
VL: B1 VL with V11L, A44V, S66T, F72Y, F84V, Y88F, G103Q, V107L
B4: 645CDR-497FW Fab nh (Fab, V domains shown)
VH: B2 VH
VL: B1 VL with D1A, M4L, V11L, G103Q
notes: also called 497FW/645CDR Fab nh; 645CDR -497FW/645CDR Fab nh
B5: 645CDR-2109FW Fab nh (Fab, V domains shown)
VH: B2 VH with V48I, R71V, D73K, S74A, T77S, L78A, K86R, T87A, T97R
VL: B1 VL with V11L, A44V, S66T, F72Y, F84V, Y88F, G103Q, V107L
notes: also called 2109FW/645CDR Fab nh; #3

The binders below were run against T1, Human serum albumin (human, UniProt P02768 25-609) (assay: SPR (Biacore), antibody captured on the chip, HSA as analyte, 25 C, 1:1 model).
T1 construct: Bought purified protein, injected as the analyte in SPR; also called HSA; Human albumin, ChromPure (Jackson ImmunoResearch)

B1 and B2 are within 1.5-fold of each other in Kd: 1.61 nM for the first, 1.23 nM for the second.

B3 and B4 are within 1.5-fold of each other in Kd: 4.74 nM for the first, 4.63 nM for the second.

B5 gave a Kd of 1.52 nM.

B1 and B2 are within 1.5-fold of each other in koff: 0.00025 s⁻¹ for the first, 0.000186 s⁻¹ for the second.

B3 and B4 are within 1.5-fold of each other in koff: 0.000651 s⁻¹ for the first, 0.000601 s⁻¹ for the second.

With B5 the koff was 0.000227 s⁻¹.

B1 and B2 are within 1.5-fold of each other in kon: 156000 M⁻¹ s⁻¹ for the first, 151000 M⁻¹ s⁻¹ for the second.

B3 and B4 are within 1.5-fold of each other in kon: 137000 M⁻¹ s⁻¹ for the first, 130000 M⁻¹ s⁻¹ for the second.

Binder B5 has a kon of 150000 M⁻¹ s⁻¹.
